# Results published in the nanobody polyreactivity screen of Harvey et al. (2022).
# Experiment: yeast display, Sf9 membrane polyspecificity reagent, FACS + sequencing; frameworks hold sequencing errors
# Method in brief: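 A synthetic nanobody library was expressed on Saccharomyces cerevisiae BJ5465 by galactose induction for 36–48 hours. The library was stained for 1 hour at 4 °C with 10% biotinylated, detergent-solubilized Sf9 membrane reagent and enriched with streptavidin microbeads before FACS. Low and high (top ~1%) gates were set on anti-HA fluorescence for expression and streptavidin fluorescence for reagent binding, and each polyreactivity label reflects the gate of origin.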
row,Sequence,polyreactivity (PSR sort gate)
1,QVQLVESGGGLVQAGGSLRLSCAASGNIFSVYAMVWYRPAPGKERELVAAISSSGGRTYYADSVKGRFTISRDNAKNTVYLQMNSLKPEDTAVYYCAARSYTGQFGYWGQGTQVTVSS,high polyreactivity
2,QVQLVESGGGLVQAGGSLRLSCAASGNIFSYNAMGWYRQAPGKERELVAGISTAGTTSYADSVKGRFTISRDNAKNTVYLQLNSLKPEDTAVYYCAKRRYYWTNLHYFLGYDYWGQGTQVTVSS,low polyreactivity
3,QVQLVESGGGLVQAGGSLRLSCAASGNIFTTYAMGWYRQAPGKERELVAAISRTGGRTSYADSVKGRFTISRDNAKNTVYLQMNSLKPEDTAVYYCAAVPTVRPSAPRARILSDYWGQGTQVTVSS,high polyreactivity
4,QVQLVESGGGLVQAGGSLRLSCAASGNIFVAYPMGWYRKATGKERELVAVISNGGRTYYADSVKGRFTISRDNAKNTVYLQMNSLKPEDTAVYYCATVAHASYGWHNYWGQGTQVTVSS,high polyreactivity
5,QVQLVESGGGLVQAGGSLRLSCAASGNIFVPNAMGWYRQAPGKERGLVAAIRRGGSTNYADSVKGRFTISRDNAKNNVYLQMNSLKPEDTGVYYCARSRVSFTDLEGYYWGQGTQVTVSS,low polyreactivity
6,QVQLVESGGGLVQAGGSLRLSCAASGNIFVRYAMGWYRQAPGKERELVAAISSSGGRTYYADSVKGRFTISRDNAKNTVYLQMNSLKPEDTAVYYCADAQGNAHRDYWGQGTQVTVSS,high polyreactivity
7,QVQLVESGGGLVQAGGSLRLSCAASGNIFVYYAMGWYRQAPGKERELVASITTSGGSTYYADSVKGRFTISRDNAKNTVYLQMNSLKPEDTAVYYCAALYYYWMDYWGQGTQVTVSS,low polyreactivity
8,QVQLVESGGGLVQAGGSLRLSCAASGNIFWAYAMGWYRQAPGKERELVAAISGRSGSTYYADSVKGRFTISRDNAKNTVYLQMNSLKPEDTAVYYCNARPRYTSGGYDYWGQGTQVTVSS,low polyreactivity
9,QVQLVESGGGLVQAGGSLRLSCAASGNIFYGYAMGWYRQAPGKERELVARINWSGSRTYYADSVKGRFTISRDNAKNSVYLQMNSLKPEDTAVYYCNTSTSRVPGNGDYWGQGTQVTVSS,high polyreactivity
10,QVQLVESGGGLVQAGGSLRLSCAASGNIFYKYDMGWYRQAPGKERELVATISSDANTKYADSLKGRFTISRDNAKNTVYLQMNSLKPEDTPVYYCNVKDPVVRGALRDPTEYDSWGQGTQVTVSS,low polyreactivity
11,QVQLVESGGGLVQAGGSLRLSCAASGNIFYLNTMGWYRQAPGKERELVASITRSTGSTYYADSVKGRFTISRDNAKNTVYLQMNSLKPEDTAVYYCAADWSLNKTPRLKGYTFRDDYWGQGTQVTVTS,low polyreactivity
12,QVQLVESGGGLVQAGGSLRLSCAASGNIFYNVMGWYRQAPGKVRELVAVISSGDSTYYADSVKGRFTISRDNAKNTVYLQMNSLIPEDTAVYYCNAQWITSAYLLYSYDYWWGYDYWGQGTQVTVSS,high polyreactivity
13,QVQLVESGGGLVQAGGSLRLSCAASGNIFYRNAMGWYRQAPGKERELVAGITTSGDSTYYADSVKGRFTISRDNAKNTVYLQMNSLKPEDTAVYYCAASSHRYKYSSSYYYWGQGTQVTVSS,high polyreactivity
14,QVQLVESGGGLVQAGGSLRLSCAASGNIFYRYAMGWYRQAPGKERELVAAISGNSGNTYYADSVKGRFTISRDNAKNTVYLQMNSLKPEDTAVYYCAVRRKSFRQTSYNYWGQGTQVTVSS,high polyreactivity
15,QVQLVESGGGLVQAGGSLRLSCAASGNIFYTYAMGWYRQAPGKERELVAAITWSGGSTYYADSVKGRFTISRDNAKNTVYLQMNSLKPEDTAVYYCAAESLGYYYSGGYYSIYDHWGQGTQVTVSS,high polyreactivity
16,QVQLVESGGGLVQAGGSLRLSCAASGNIFYYNAMGGNRQAPGKERELVAAITTGGSTNYADSVKGRFTISRDNAKNTVYLQMNSLTPEDTAVYDCAADFIRYINRLLYDYWGQGTQVTVSS,low polyreactivity
17,QVQLVESGGGLVQAGGSLRLSCAASGNIFYYYAMGWYRQAPGKERELVAAISNGITYYADSVKGRFTISRDNAKNTVYLQMNSLKPEDTAVYYCAVDSDGNVRAVSGESLYDYWGQGTQVTVSS,low polyreactivity
18,QVQLVESGGGLVQAGGSLRLSCAASGNIFYYYAMGWYRQAPGKERELVAAISWRGGITYYANSVKGRFTISRDNAKNTVYLQMNSLKPEDNAVYYCNAVQPGYPNGFAVRYNYWGQGTQVTVSS,low polyreactivity
19,QVQLVESGGGLVQAGGSLRLSCAASGNIFYYYAMGWYRQAPGKERELVATISKGGGSTNYADSVKGRFTISRDNAKNTVYLQMNSLKPEDTAVYYCNASYVSRRYHFDYWGQGTQVTVSS,high polyreactivity
20,QVQLVESGGGLVQAGGSLRLSCAASGNILFYNAMGWYRQAPGKERELVAAISRSAGSTYYADSVKGRFTISRDNAKNTVYLQMNSLKPEDTAVYYCAAQYFRRSVYWGQGTQVTVSS,high polyreactivity
21,QVQLVESGGGLVQAGGSLRLSCAASGNILIGNVMGWYRQAPGKERELVAAITSGGDTYYADSVKGRFTISRDNAKNTVNLQMNSLKPEDTAVYYCAADRPGQPKYEYWGQGTQVTVSS,low polyreactivity
22,QVQLVESGGGLVQAGGSLRLSCAASGNISYTYVMGWSRQAPGKHRELVAAITWSTGSTYYADSVKGRFTISRDNAKNTVYLQMNSLKPEDTAVYYCAVDGGEFSSYGYWGQGTQVTVSS,low polyreactivity

row,Sequence,polyreactivity (PSR sort gate)
1,QVQLVESGGGLVQAGGSLRLSCAASGNIYSWYAMGWYRQAPGKERELVAVISRSGGSTYYADSVKGRFTISRDNAKNTVYLQMNSLKPEDTAVYYCAARAYRTPYSIQFDYWGQGTQVTVSS,high polyreactivity
2,QVQLVESGGGLVQAGGSLRLSCAASGNTFAQNTMGWYRQAPGKEREFVAGITFSGTGTYYADSVKGRFTISRDNAKNTVYLQMNSLKPEDTAVYYCAAESVYTWYYQDDDDYWGQGTQVTVSS,low polyreactivity
3,QVQLVESGGGLVQAGGSLRLSCAASGNTFCQYAMGWYRQAPGKERELVAAITRSTGSTYYADSVNGRFTISRDNAKNTVYLQMISLKPEDTAVYYCAADFYRHYFRVDSWGQGTQVTVSS,low polyreactivity
4,QVQLVESGGGLVQAGGSLRLSCAASGNTFDGNAMGWYRQAPGQERELVAAINYSGASTSYADSVKGRFTISRDNAKNTVYLQMNSLKREDTAVYYCAADYPPLYRKYDYWGHGTQVTVSS,low polyreactivity
5,QVQLVESGGGLVQAGGSLRLSCAASGNTFEYYAMGWYRQAPGKERELVAAITSGGSTNYADSVKGRFTISRDNAKNTVYYQMNSLKPEDTAVYYCAADQWGYEYDYWGQGTQVTVSS,low polyreactivity
6,QVQLVESGGGLVQAGGSLRLSCAASGNTFEYYVMGWYRQAPGKERELVAAITWSTGSTYYADSVKGRFTISRDNAKNTVYLQMNSLKPEDTAVYYCAALYYFIFGRPTRFDYWGQGTQVTVSS,low polyreactivity
7,QVQLVESGGGLVQAGGSLRLSCAASGNTFGLYAMGWYRQAPGKEREFVADITTDGGTTYYADSVKGRFTISRDNAKNTVYLQMNSLKPEDTAVYYCAKLGTFGQHQYDYWGQGTQVTVSS,low polyreactivity
8,QVQLVESGGGLVQAGGSLRLSCAASGNTFGRYAMGWYRQAPGKERELVASIRGSSVRTFYADSVKGRFTISRDNAKNTVYLQMNSLKPEDTAVYYCAKRGYAYPSSYDSWGQGTQVTVSS,high polyreactivity
9,QVQLVESGGGLVQAGGSLRLSCAASGNTFGYYAMGWYRQAPGKERELVAAITWNGDRTYYADSVKGRFTISRDNAKNTVYLQMNSLKPEDTAVYYCNKVNPYRHGYWGQGTQVTVSS,high polyreactivity
10,QVQLVESGGGLVQAGGSLRLSCAASGNTFHPYAMGWYRQAPGKERALVAAITKSGGSTYYADSVKGRFTISRDNAKNTVYLQMNSLKPEDTAVYYCATDGYEYTDYGSSGYDYWGQGTQVTVSS,low polyreactivity
11,QVQLVESGGGLVQAGGSLRLSCAASGNTFIEYAMGWYRQAPGKERELVAAINWNGGSTYYADSVKGRFTISRDNAKNTVYLQMNSLKPEDTAVYYCYADYPQYWDYRTSDYTYGTYNYWGQGTQVTVSS,low polyreactivity
12,QVQLVESGGGLVQAGGSLRLSCAASGNTFIGNAMGWYRQAPGKERELVAAISWSTDSTYYADSVKGRFTISRDNAKNSVYLQMNSLKPEDTAINYCAADYSHLPIAWYYYWGQGTQVTVSS,low polyreactivity
13,QVQLVESGGGLVQAGGSLRLSCAASGNTFIYYGMGWYRQAPGKERELVAAITWSGGSTYYADSVKGRFTISRDNAKNTVYLQMNSLKPEETAVYYCAKFTHNYYYWGQGTQVTVSS,high polyreactivity
14,QVQLVESGGGLVQAGGSLRLSCAASGNTFLRNTMGWYRQAPGTERELVAAISWGGGTTYYADSVKGRFTISRDNAKNTVYLQMNILKPEDTAVYYCNARYYSRRGNSWGQGTQVTVSS,high polyreactivity
15,QVQLVESGGGLVQAGGSLRLSCAASGNTFNANAMGWYRQAPGKERELVAVISANGGRTYYADSVKGRFTISRDNAKNTVYLQMNSLKPEDTAVYYCATGRYGGQGYPFYYWGQGTQVTVSS,low polyreactivity
16,QVQLVESGGGLVQAGGSLRLSCAASGNTFNPNAMGWYRQAPGKERELVAVIRFRGGSTYYADSVKGRFTISRDNAKNTVYLQMNSLKPEDTAVYYCNVYRGRYLYAWRPRGYWGQGTQVTVSS,high polyreactivity
17,QVQLVESGGGLVQAGGSLRLSCAASGNTFNSYAMGWYRQAPGKERELVAAISSSTGRTYYADSVKGRFTISRDNAKNTVYLQMNSLKPEDTAVYYCNAYLYLSRNGYWGQGTQVTVSS,high polyreactivity
18,QVQLVESGGGLVQAGGSLRLSCAASGNTFPAYAMGWYRQAPGTGGELVATISWSTGSTNYADSVKGRFTISRDNAKNTVYLQMNSLKPEDTAVYYCNKRYPSDQMDYWGQGTQVTVSS,low polyreactivity
19,QVQLVESGGGLVQAGGSLRLSCAASGNTFPPNAMGWYRQAPGKERELVAAISWSGDSTYYADSVKGRFTISRDYAKNTVYLQMYSLKPEDTAVYYCAAAIFGEYEYWGQGTQVTVSS,low polyreactivity
20,QVQLVESGGGLVQAGGSLRLSCAASGNTFPSYAMGWYRQAPGKERQLVAAITSGGRTYYADSVKGRFTISRDNAKNTVYLQMNSLKPEDTAVYYCAADWVVRYPWYRYYYWGPGTQVTVSS,high polyreactivity
21,QVQLVESGGGLVQAGGSLRLSCAASGNTFRWYVMGWYRQAPGKERELVAAITSSGSTTYYADSVKGRFTISRDNAKNTVYLQMNSLKPEDTAVYYCAARNYGPYDYWGQGTQVTVSS,low polyreactivity
